The text below walks through data of article PMC3961267.

In this data set the test system is P266L T7 RNA polymerase (bacteriophage T7). Nature of the data set: fluorescence anisotropy. The note with it: Buffer A: 50 mM Tris-acetate, 50 mM sodium acetate, 10 mM magnesium acetate, 5 mM DTT, 25 C; pH not stated. A general note: Fluorescence polarisation rises when a labelled molecule tumbles more slowly, as on binding a larger partner.

As usually defined, the Kd is the free concentration of one partner at which half of the binding sites on the other are occupied at equilibrium, for simple one-to-one binding. A higher Kd goes with lower affinity. In turn, TAMRA-labeled T7 consensus promoter DNA came in with a Kd of 3.6 nM.
